Test results from the RNAGym collection of RNA variant scans (doi:10.7554/elife.80360).

B1: Hairpin Ribozyme (parent)
chain: GUCCUCUUUCACGUGCGCGUGAAAGAGAGAAGUGAACCAGAGAAACACACGUUGUGGUAUAUUACCUGGUA

Variants of: B1
Experiment: self-cleavage, relative activity (ratio to wild type); higher = more cleavage; co-transcriptional
With U33C U67G the self-cleavage was 0.21.
U33A U58A gave a self-cleavage of 0.0766.
With U33A U58G the self-cleavage was 0.135.
A31G G56U showed a self-cleavage of 0.106.
A31G G56C gave a self-cleavage of 0.164.
G32C U33C gave a self-cleavage of 0.0618.
With G32C U33G the self-cleavage was 0.12.
With A31G A64C the self-cleavage was 0.0777.
A31G A64G showed a self-cleavage of 0.284.
Variant U33A C65U has a self-cleavage of 0.238.
For A31U G57A, the self-cleavage was 0.169.
In the case of A31U G57C, the self-cleavage is reported as 0.155.
In the case of A31U G57U, the self-cleavage is reported as 0.216.
For A31G A59C, the self-cleavage was 0.173.
Variant U33A U67C has a self-cleavage of 0.104.
For G32U U58C, the self-cleavage was 0.116.
For A31U G68A, the self-cleavage was 0.157.
G32A A44C showed a self-cleavage of 0.0922.
In the case of G32A A44G, the self-cleavage is reported as 0.143.
Work on G32A A44U yielded a self-cleavage of 0.152.
With U33A U55A the self-cleavage was 0.0922.
Variant U33G A36G has a self-cleavage of 0.0878.
A31G A71U showed a self-cleavage of 0.396.
U33G G68U gave a self-cleavage of 0.0922.
In the case of U33G G68A, the self-cleavage is reported as 0.151.
Work on G32U C37U yielded a self-cleavage of 0.161.
For G32U C37A, the self-cleavage was 0.0811.
A31U C38G gave a self-cleavage of 0.
In the case of G32U U33G, the self-cleavage is reported as 0.0653.
In the case of G32U A61G, the self-cleavage is reported as 0.0951.
Work on U33G C48U yielded a self-cleavage of 0.112.
U33G C48G showed a self-cleavage of 0.209.
In the case of G32C A64G, the self-cleavage is reported as 0.0936.
G32C A64U gave a self-cleavage of 0.159.
Work on G32C A64C yielded a self-cleavage of 0.183.
Variant G32U A43G has a self-cleavage of 0.0636.
Variant G32U A43C has a self-cleavage of 0.0806.
With G32U G34U the self-cleavage was 0.126.
U33C C48U gave a self-cleavage of 0.118.
Variant U33G G54C has a self-cleavage of 0.145.
U33G G54A gave a self-cleavage of 0.111.
With U33G G54U the self-cleavage was 0.0691.
Variant A31G U55A has a self-cleavage of 0.105.
In the case of G32C U62C, the self-cleavage is reported as 0.2.
Variant U33C U70G has a self-cleavage of 0.147.
U33C U70C gave a self-cleavage of 0.0962.
A31U U53G gave a self-cleavage of 0.122.
For A31U U53A, the self-cleavage was 0.026.
U33C A61C showed a self-cleavage of 0.074.
For U33C A61U, the self-cleavage was 0.163.
G32A A49C gave a self-cleavage of 0.0198.
Work on G32A A49U yielded a self-cleavage of 0.0556.
Work on G32U A39U yielded a self-cleavage of 0.125.
In the case of U33A A43G, the self-cleavage is reported as 0.169.
Variant U33G U58C has a self-cleavage of 0.119.
G32U C66G showed a self-cleavage of 0.19.
With A31U G34U the self-cleavage was 0.167.
For U33A A35C, the self-cleavage was 0.0785.
With U33C U60A the self-cleavage was 0.14.
For U33C U60G, the self-cleavage was 0.0999.
For G32A G34A, the self-cleavage was 0.07.
U33G U62G gave a self-cleavage of 0.0966.
U33G U62A gave a self-cleavage of 0.126.
In the case of G32A G40C, the self-cleavage is reported as 0.156.
Variant G32A U53A has a self-cleavage of 0.0993.
U33G U53C gave a self-cleavage of 0.204.
Variant U33G U53G has a self-cleavage of 0.211.
For A31G A35G, the self-cleavage was 0.662.
For A31G A35U, the self-cleavage was 0.378.
Variant G32A A43C has a self-cleavage of 0.0569.
In the case of G32A A43G, the self-cleavage is reported as 0.141.
U33A A61U showed a self-cleavage of 0.167.
Work on U33A A61G yielded a self-cleavage of 0.0674.
In the case of G32U A36C, the self-cleavage is reported as 0.1.
With A31G A44U the self-cleavage was 0.205.
Variant A31G A44G has a self-cleavage of 0.208.
Variant G32A U70C has a self-cleavage of 0.0825.
Work on U33C A45G yielded a self-cleavage of 0.227.
A31G A61U showed a self-cleavage of 0.159.
For A31G A61C, the self-cleavage was 0.16.
Variant G34A A35U has a self-cleavage of 0.569.
Variant A31U G54C has a self-cleavage of 0.119.
With A31G G51U the self-cleavage was 0.599.
